The results in this text go back to US20260234242A1 (HAINAN SIMCERE ZAIMING PHARMACEUTICAL, published 2026).

In general, EC50 refers to the concentration that produces a half-maximal response. High values mean a need for much substance, low ones an effect from little substance.

The target in test [1] is T1, human CDH6 on tumor cells (OVCAR3 cells, PA-1 cells) (human, UniProt P55285 54-790).
T1 sequence: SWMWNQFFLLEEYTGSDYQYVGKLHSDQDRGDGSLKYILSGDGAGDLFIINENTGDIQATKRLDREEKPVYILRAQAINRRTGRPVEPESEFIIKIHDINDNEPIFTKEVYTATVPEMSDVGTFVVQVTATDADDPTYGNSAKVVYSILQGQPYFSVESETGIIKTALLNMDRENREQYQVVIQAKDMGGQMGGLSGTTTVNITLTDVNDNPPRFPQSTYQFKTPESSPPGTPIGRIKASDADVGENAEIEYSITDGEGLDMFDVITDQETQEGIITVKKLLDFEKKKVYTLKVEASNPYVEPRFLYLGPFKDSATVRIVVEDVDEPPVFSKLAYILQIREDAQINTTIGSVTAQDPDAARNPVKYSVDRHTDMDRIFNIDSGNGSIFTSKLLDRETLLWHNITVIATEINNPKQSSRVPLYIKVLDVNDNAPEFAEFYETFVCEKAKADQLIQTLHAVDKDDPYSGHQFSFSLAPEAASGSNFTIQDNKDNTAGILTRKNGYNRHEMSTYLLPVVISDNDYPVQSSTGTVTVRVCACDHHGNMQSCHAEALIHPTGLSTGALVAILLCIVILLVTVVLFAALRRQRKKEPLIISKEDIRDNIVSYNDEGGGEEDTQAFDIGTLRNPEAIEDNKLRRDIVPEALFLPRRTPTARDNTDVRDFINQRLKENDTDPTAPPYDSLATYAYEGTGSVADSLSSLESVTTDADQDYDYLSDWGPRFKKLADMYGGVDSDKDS
The test is described as follows: FACS, PA-1 cells. The method, then:
OVCAR3 cells with high expression of CDH6 and PA-1 cells with moderate expression of CDH6 were used to detect the binding activity of the antibodies to the cells. […] The cells were washed once with PBS, counted, resuspended to 2×10⁶ cells/mL in an FACS buffer (PBS+2% FBS), and then added to a 96-well plate at 50 μL/well. The chimeric antibodies were diluted with FACS buffer (PBS+2% FBS) and added to the 96-well plate at 50 μL/well, and the plate was incubated at 4° C. for 1 h. […] The dilution was added to the 96-well plate at 50 μL/well, and the plate was incubated at 4° C. for 1 h. After the plates were centrifuged and washed 2 times with PBS, the cells were resuspended in an FACS buffer. The mean fluorescence intensity (MFI) was measured using FACS Canton II (BD). Analysis was performed by the GraphPad Prism software, data were fitted, and EC50 values were calculated. The chimeric antibodies tested had strong binding to both OVCAR3 cells and PA-1 cells.
According to the above sequences, heavy chain (HC) and light chain (LC) plasmids were constructed (the nucleic acid sequences encoding the VH and VL of the antibodies were recombined into an expression vector carrying a signal peptide (SEQ ID NO: 132, […]) and a heavy chain constant region/light chain constant region sequence to obtain recombinant plasmids expressing VH-CH1-Fc/VL-CL). According to the expression and purification methods in Example 2, the hCDH6-14 humanized antibodies were obtained, and the binding activity of the humanized antibodies was detected by ELISA and FACS (see 2.2 and 2.3 for the method).
For orientation: Flow cytometry measures light scatter and fluorescence of single cells or particles in a stream.

In test [2] the target is T2, his-tagged human CDH6 extracellular region protein (hCDH6 ECD-his) (human, UniProt P55285 19-615).
T2 construct: also called Human CDH6-his; hCDH6-his; not shown: his tag
T2 sequence: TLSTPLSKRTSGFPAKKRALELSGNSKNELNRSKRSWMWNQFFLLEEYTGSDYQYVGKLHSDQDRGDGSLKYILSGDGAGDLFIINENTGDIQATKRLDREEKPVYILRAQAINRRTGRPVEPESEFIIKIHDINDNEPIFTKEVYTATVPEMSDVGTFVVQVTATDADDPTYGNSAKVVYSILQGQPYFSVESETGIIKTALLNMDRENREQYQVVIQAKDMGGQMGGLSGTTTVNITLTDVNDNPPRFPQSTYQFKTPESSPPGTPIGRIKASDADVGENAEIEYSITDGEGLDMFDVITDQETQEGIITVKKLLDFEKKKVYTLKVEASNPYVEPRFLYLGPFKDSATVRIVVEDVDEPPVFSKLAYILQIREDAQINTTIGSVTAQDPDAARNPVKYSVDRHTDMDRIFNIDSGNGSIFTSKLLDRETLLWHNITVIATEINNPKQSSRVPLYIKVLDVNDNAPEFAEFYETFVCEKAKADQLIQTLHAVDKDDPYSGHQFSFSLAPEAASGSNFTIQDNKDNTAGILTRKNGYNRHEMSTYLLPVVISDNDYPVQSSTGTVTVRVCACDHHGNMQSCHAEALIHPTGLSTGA
The experiment in a line: ELISA, coated antigen. The method, then:
Human CDH6 protein (hCDH6 ECD-his, conventionally synthesized), monkey CDH6 protein (cynoCDH6 ECD-his, conventionally synthesized; the cynoCDH6 ECD sequence was derived from Uniprot #A0A2K5TW62 (19-615)), and murine CDH6 protein (mCDH6 ECD-his, conventionally synthesized; the mCDH6 ECD sequence was derived from Uniprot #P97326 (19-615)) were diluted with PBS to a final concentration of 1 μg/mL, and added to a 96-well ELISA plate at 100 μL/well. The plate was incubated at 4° C. overnight. The next day, the plate was washed 3 times with a plate washing solution (PBS+0.01% (v/v) Tween 20), and a blocking buffer (PBS+0.01% (v/v) Tween 20+2% (w/w) BSA) was added for blocking at room temperature for 2 h. The blocking buffer was discarded, and the plate was washed 3 times. The chimeric antibodies were diluted with 1% BSA+PBS (purchased from Cytiva, Cat. No. SH30264.01) and added to the 96-well plate at 50 μL/well. After incubation at 37° C. for 2 h, the plate was washed 3 times with a plate washing solution. […] The plate was incubated at 37° C. for 1 h and then washed 5 times with a plate washing solution. A TMB substrate (purchased from Seracare, Cat. No. 5120-0077) was added at 50 μL/well and incubated at room temperature for 10 min, then a stop solution (1.0 N HCl) was added at 50 μL/well. OD450 nm values were read using a microplate reader (Biotek). Analysis was performed by the GraphPad Prism software, data were fitted, and EC50 values were calculated. The chimeric antibodies tested all had strong binding to the human CDH6 protein, the monkey CDH6 protein, and the murine CDH6 protein.
According to the above sequences, heavy chain (HC) and light chain (LC) plasmids were constructed (the nucleic acid sequences encoding the VH and VL of the antibodies were recombined into an expression vector carrying a signal peptide (SEQ ID NO: 132, […]) and a heavy chain constant region/light chain constant region sequence to obtain recombinant plasmids expressing VH-CH1-Fc/VL-CL).
A general note: An ELISA detects its analyte on a solid surface through an enzyme-linked reagent.

Residue numbers refer to the chain shown, from its start.

B1: hCDH6-14-H1L1 (antibody, V domains shown)
VH: EVQLVQSGAEVKKPGASVKVSCKASGYTFTDNYINWVRQAPGQRLEWMGWIYPGTGNSYYNEKFKGRVTITVDTSASTAYMELSSLRSEDTAVYYCASSYGDSFDYWGQGTTVTVSS
VL: DIQMTQSPSSLSASVGDRVTITCRASQDIRNYLNWYQQKPGKAFKLLISYTSRLHSGVPSRFSGSGSGTDFTFTISSLQPEDIATYYCQQYSQLPWTFGGGTKVEIK
notes: Humanized
Regarding B1, in test [1], the EC50 came out at 260 pM and the “Max MFI” value was 3680 MFI. For the same molecule, in test [2], the EC50 is 59 pM and the “Max OD450” value came to 2.69 OD450.

B2: hCDH6-14-H1L3 (antibody, V domains shown)
VH: B1 VH
VL: DIVMTQSPDSLAVSLGERATINCRASQDIRNYLNWYQQKPGQTPKLLISYTSRLHSGVPDRFSGSGSGTDFTLTISSLQAEDVAVYYCQQYSQLPWTFGGGTKVEIK
notes: Humanized
Consider B2, for which, in test [1], the EC50 turned out to be 270 pM and the “Max MFI” value was determined as 3580 MFI. Besides, in test [2], the EC50 amounted to 56 pM and the “Max OD450” value was determined as 2.68 OD450.

B3: hCDH6-14-H4L2 (antibody, V domains shown)
VH: B1 VH with R44G
VL: B1 VL with K42G, F44P
notes: Humanized
As for B3, in test [1], the EC50 is 260 pM and the “Max MFI” value amounted to 3570 MFI. Further, in test [2], the EC50 came out at 89 pM and the “Max OD450” value was found to be 2.64 OD450.

B4: hCDH6-14-H3L2 (antibody, V domains shown)
VH: B1 VH with V2I, I70L
VL: B1 VL with K42G, F44P
notes: Humanized
Take B4: in test [1], the EC50 stood at 230 pM and the “Max MFI” value is 3490 MFI. Besides, in test [2], a half-maximal effect (EC50) was put at 74 pM and the “Max OD450” value was found to be 2.63 OD450.

B5: hCDH6-14-H3L1 (antibody, V domains shown)
VH: B1 VH with V2I, I70L
VL: B1 VL
notes: Humanized
In the case of B5, in test [1], the EC50 turned out to be 260 pM and the “Max MFI” value amounted to 3490 MFI. Also, in test [2], the EC50 came to 96 pM and the “Max OD450” value was determined as 2.62 OD450.

B6: hCDH6-14-H4L1 (antibody, V domains shown)
VH: B1 VH with R44G
VL: B1 VL
notes: Humanized
B6: in test [1], the EC50 is 250 pM and the “Max MFI” value is 3820 MFI. Further, in test [2], the EC50 was 52 pM and the “Max OD450” value came out at 2.62 OD450.

B7: hCDH6-14-H2L2 (antibody, V domains shown)
VH: B1 VH with V2I
VL: B1 VL with K42G, F44P
notes: Humanized
As for B7, in test [1], the EC50 came out at 270 pM and the “Max MFI” value came to 3930 MFI. Besides, in test [2], a half-maximal effect (EC50) was put at 98 pM and the “Max OD450” value was 2.54 OD450.

B8: hCDH6-14-H2L3 (antibody, V domains shown)
VH: B1 VH with V2I
VL: B2 VL
notes: Humanized
For the molecule B8, in test [1], the half-maximal effective concentration (EC50) turned out to be 220 pM and the “Max MFI” value stood at 3780 MFI. For the same molecule, in test [2], the 50% effective concentration (EC50) was found to be 90 pM and the “Max OD450” value was found to be 2.48 OD450.

B9: hCDH6-14-H2L1 (antibody, V domains shown)
VH: B1 VH with V2I
VL: B1 VL
notes: Humanized
B9: in test [1], a half-maximal response (EC50) required 250 pM and the “Max MFI” value is 3560 MFI. In test [2], a half-maximal effect (EC50) was put at 76 pM and the “Max OD450” value was 2.65 OD450.

B10: hCDH6-14-H6L2 (antibody, V domains shown)
VH: B1 VH with Y95L
VL: B1 VL with K42G, F44P
notes: Humanized
In the case of B10, in test [1], the midpoint of the response, the EC50, lay at 260 pM and the “Max MFI” value was determined as 3540 MFI. Moreover, in test [2], it took 93 pM to reach a half-maximal effect (EC50) and the “Max OD450” value was 2.62 OD450.

B11: hCDH6-14-H5L2 (antibody, V domains shown)
VH: B1 VH with V5Q
VL: B1 VL with K42G, F44P
notes: Humanized
With B11, in test [1], the EC50 was determined as 230 pM and the “Max MFI” value turned out to be 3320 MFI. Besides, in test [2], a half-maximal effect (EC50) was put at 109 pM and the “Max OD450” value is 2.58 OD450.

B12: hCDH6-14-H1L2 (antibody, V domains shown)
VH: B1 VH
VL: B1 VL with K42G, F44P
notes: Humanized
In the case of B12, in test [1], the EC50 was 220 pM and the “Max MFI” value is 3600 MFI. Also, in test [2], a half-maximal effect (EC50) was put at 128 pM and the “Max OD450” value came out at 2.84 OD450.

B13: hCDH6-14-H5L1 (antibody, V domains shown)
VH: B1 VH with V5Q
VL: B1 VL
notes: Humanized
B13: in test [1], the EC50 was 250 pM and the “Max MFI” value stood at 3780 MFI. In test [2], the concentration giving a half-maximal response (EC50) turned out to be 79 pM and the “Max OD450” value came out at 2.81 OD450.

B14: hCDH6-14-H6L1 (antibody, V domains shown)
VH: B1 VH with Y95L
VL: B1 VL
notes: Humanized
Consider B14, for which, in test [1], the 50% effective concentration (EC50) amounted to 240 pM and the “Max MFI” value was 3700 MFI. Moreover, in test [2], it took 67 pM to reach a half-maximal effect (EC50) and the “Max OD450” value stood at 2.7 OD450.

B15: hCDH6-14-H3L3 (antibody, V domains shown)
VH: B1 VH with V2I, I70L
VL: B2 VL
notes: Humanized
B15: in test [1], the EC50 was determined as 190 pM and the “Max MFI” value is 3470 MFI. In addition, in test [2], the midpoint of the response, the EC50, lay at 113 pM and the “Max OD450” value was determined as 2.56 OD450.
